For test [1], the target named is RSV strain A2 F protein, pre-fusion-stabilized DS-Cav1 (human respiratory syncytial virus subgroup A strain A2) (UniProt P03420). Put plainly: ELISA on coated antigen.
For test [2], the target named is RSV strain A2 F protein, pre-fusion-stabilized SC-TM (human respiratory syncytial virus strain A2) (UniProt P03420). In words: ELISA on coated antigen.

The source of these data is patent US20190240316A1.

As to motavizumab (antibody), the EC50 in test [1] worked out at 0.037 µg/mL; in test [2], 0.028 µg/mL.
Consider mAb D25 (antibody), for which the EC50 in test [1] was found to be 0.089 µg/mL.
